Assay results as given in patent US20090324603A1 (VAN ANDEL RESEARCH INSTITUTE, published 2009).

How the values were obtained:
[1] = target: T1, recombinant c-Met antigen (human, UniProt P08581 25-932, limits assumed); test: non-competitive ELISA, Kd of scFv-S1 against Kd of the original Fab
T1 construct: also called immobilized Met antigen; human Met antigen
Protocol: (§1) The most commonly used formula was established by David Beatty and the equation was Kaff=(n−1)/(2{n[Ab′]ₜ−[Ab]ₜ}) (n=[Ag]/[Ag′]). This method utilized OD-50 of the sigmoid curve and obviated the need for affinity purification of antibody used as standard. Using serial dilutions of both antigen ([Ag], [Ag′]) and antibody (scFv antibody), the affinity constant (Kaff) was measured by non-competitive ELISA. Two sigmoid curves of optical density (OD) versus logarithms of antibody concentrations were estimated by SPSS 10.0 software. The maximum value of OD (OD-100) of each curve was computed respectively and OD-50, half of OD-100, was obtained. Then the concentrations of antibody corresponding to OD-50 on the curves, named [Ab]ₜ and [Ab′]ₜ were calculated. For [Ag′]=½[Ag], Kaff=1/{2[Ab′]ₜ−[Ab]ₜ}.

[2] = target: T1, recombinant c-Met antigen; test: non-competitive ELISA with serial dilutions of both Met and scFv (Beatty method)
Protocol: as §1

[3] = target: human c-Met (HGF/SF receptor) on S114 and MKN45 cells (human, UniProt P08581 25-1390); test: cell-based or functional assay
human c-Met (HGF/SF receptor) on S114 and MKN45 cells, sequence (P08581 25-1390): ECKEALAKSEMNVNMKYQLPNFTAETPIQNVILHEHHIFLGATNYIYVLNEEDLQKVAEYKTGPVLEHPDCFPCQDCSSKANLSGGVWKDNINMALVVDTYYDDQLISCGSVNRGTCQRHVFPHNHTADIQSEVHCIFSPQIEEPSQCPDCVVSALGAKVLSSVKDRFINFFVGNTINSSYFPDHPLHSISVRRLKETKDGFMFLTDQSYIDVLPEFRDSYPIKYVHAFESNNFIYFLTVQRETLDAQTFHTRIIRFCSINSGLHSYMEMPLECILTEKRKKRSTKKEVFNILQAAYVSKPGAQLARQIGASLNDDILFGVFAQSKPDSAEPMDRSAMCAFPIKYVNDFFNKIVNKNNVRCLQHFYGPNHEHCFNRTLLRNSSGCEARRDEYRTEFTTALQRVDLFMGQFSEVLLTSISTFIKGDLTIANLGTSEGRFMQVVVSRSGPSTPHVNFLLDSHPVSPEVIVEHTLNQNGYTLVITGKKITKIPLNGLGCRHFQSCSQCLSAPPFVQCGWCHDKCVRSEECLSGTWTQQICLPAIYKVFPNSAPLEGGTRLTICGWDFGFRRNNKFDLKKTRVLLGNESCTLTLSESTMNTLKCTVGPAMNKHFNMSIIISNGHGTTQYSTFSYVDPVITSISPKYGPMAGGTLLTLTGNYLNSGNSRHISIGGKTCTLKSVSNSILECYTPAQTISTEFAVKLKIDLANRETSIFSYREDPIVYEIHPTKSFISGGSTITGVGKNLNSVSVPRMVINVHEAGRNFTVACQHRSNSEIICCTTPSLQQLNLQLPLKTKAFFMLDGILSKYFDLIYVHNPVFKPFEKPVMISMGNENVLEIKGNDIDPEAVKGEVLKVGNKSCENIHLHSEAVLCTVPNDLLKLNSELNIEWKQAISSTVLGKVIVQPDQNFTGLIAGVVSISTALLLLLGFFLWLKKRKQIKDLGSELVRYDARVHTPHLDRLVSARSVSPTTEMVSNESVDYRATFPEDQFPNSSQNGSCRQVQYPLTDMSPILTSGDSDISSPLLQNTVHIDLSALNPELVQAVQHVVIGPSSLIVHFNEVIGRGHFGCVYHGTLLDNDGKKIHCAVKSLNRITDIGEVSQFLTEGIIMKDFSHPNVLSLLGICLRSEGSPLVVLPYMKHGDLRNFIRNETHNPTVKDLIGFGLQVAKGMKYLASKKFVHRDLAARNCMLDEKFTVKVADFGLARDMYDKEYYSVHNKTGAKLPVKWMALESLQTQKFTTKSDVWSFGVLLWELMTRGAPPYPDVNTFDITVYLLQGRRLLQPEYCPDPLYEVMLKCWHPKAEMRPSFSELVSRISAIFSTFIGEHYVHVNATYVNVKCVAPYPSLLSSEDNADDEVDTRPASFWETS

T1 sequence (P08581 25-932 limits assumed): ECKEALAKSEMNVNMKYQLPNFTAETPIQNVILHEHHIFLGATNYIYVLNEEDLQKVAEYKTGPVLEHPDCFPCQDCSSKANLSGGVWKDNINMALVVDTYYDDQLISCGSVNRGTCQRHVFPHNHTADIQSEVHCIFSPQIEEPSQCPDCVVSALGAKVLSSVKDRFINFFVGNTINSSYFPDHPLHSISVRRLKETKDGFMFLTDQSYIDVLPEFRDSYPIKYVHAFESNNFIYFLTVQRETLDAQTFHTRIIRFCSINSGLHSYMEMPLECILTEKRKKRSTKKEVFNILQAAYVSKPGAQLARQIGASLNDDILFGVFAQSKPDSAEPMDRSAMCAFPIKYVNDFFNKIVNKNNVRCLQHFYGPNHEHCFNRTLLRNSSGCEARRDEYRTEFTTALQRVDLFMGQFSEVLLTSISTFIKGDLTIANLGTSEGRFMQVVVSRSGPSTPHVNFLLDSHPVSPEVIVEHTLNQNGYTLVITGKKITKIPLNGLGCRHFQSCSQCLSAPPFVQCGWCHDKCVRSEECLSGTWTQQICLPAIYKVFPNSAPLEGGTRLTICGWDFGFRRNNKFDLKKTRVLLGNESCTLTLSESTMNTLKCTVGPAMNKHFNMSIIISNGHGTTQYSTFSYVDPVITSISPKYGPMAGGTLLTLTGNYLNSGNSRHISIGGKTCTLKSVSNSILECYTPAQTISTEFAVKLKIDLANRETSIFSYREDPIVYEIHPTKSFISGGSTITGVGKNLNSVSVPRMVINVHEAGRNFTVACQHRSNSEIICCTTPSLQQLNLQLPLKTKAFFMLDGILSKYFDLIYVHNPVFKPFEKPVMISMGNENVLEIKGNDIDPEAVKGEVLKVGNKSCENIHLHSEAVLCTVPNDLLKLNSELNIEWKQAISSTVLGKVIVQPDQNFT

| Binder | fold increase in affinity against the original Fab [1] [times] | Kd [2] [nM] | inhibition ratio of S114 cells incubated with 800 ng Fab and Hum-ZAP, 72 hrs [3] [%] | inhibition ratio of S114 cells incubated with 800 ng Fab and Hum-ZAP, 96 hrs [3] [%] |
| --- | --- | --- | --- | --- |
| anti-Met scFv-S1 (scFv, also called scFv Si; S1 phage) scFv: ELQMTQSPSLLSASTGDRVTISCRASQSISSYLNWYQQKPGKAPKLLIYTRSSLQSGVPSRFSGSGSGTDFTLTISSLQPEDFATYYCQQSYSTPHTFGQGTKLEIKGGSSRSSSSGGGGSGGGGEVQLVESGGGVVQPGRSLRLSCAASGFTFSSYAMHWVRQAPGKGLEWVAVIWYDGSNRYYADSVKGRFTISRDNSKNTLYLQMNSLRAEDTAVYYCASQATEGLIWGQGTLVTVSP | 117 | 51.5 |  |  |
| anti-Met Fab-Met-2 (Fab, V domains shown) VH: EVQLVESGGGVVQPGRSLRLSCAASGFTFSSYAMHWVRQAPGKGLEWVAVIWYDGSNRYYADSVKGRFTISRDNSKNTLYLQMNSLRAEDTAVYYCASQATEGLIWGQGTLVTVSP VL: ELQMTQSPSLLSASTGDRVTISCRASQSISSYLNWYQQKPGKAPKLLIYTRSSLQSGVPSRFSGSGSGTDFTLTISSLQPEDFATYYCQQSYSTPHTFGQGTKLEIKR |  |  | 73.8 | 62.7 |
